# Laboratory results published in patent publication US20250296984A1, “THERAPEUTIC AND DIAGNOSTIC AGENTS AND USES THEREOF” (priority 2022, published 2025).
# B1: 13-5G6-1D3 rAb: recombinant antibody product of US28-13-5G6-1D3 produced in HEK293-F cells (antibody)
# heavy: EVKLVESGGGLVQPGGSLRLACATSGFTFTDYYMSWVRQPPGKALEWLGFIRSKANGYTTEYSASVKGRFTISRDNSQSILYLQMNTLRSEDSATYYCARDERRTAWLAYWGQGTLVTVSAAKTTPPSVYPLAPGSAAQTNSMVTLGCLVKGYFPEPVTVTWNSGSLSSGVHTFPAVLQSDLYTLSSSVTVPSSTWPSETVTCNVAHPASSTKVDKKIVPRDCGCKPCICTVPEVSSVFIFPPKPKDVLTITLTPKVTCVVVDISKDDPEVQFSWFVDDVEVHTAQTQPREEQFNSTFRSVSELPIMHQDWLNGKEFKCRVNSAAFPAPIEKTISKTKGRPKAPQVYTIPPPKEQMAKDKVSLTCMITDFFPEDITVEWQWNGQPAENYKNTQPIMDTDGSYFIYSKLNVQKSNWEAGNTFTCSVLHEGLHNHHTEKSLSHSPGK
# light: DVLMTQTPLSLPVSLGDQASISCRSSQSIVHSNGNTYLDWYLQKPGQSPKLLIYKVSNRFSGVPDRFSGSGSGTDFTLKISRVEAEDLGVYYCFQGSHVPTWTFGGGTKLEIKRADAAPTVSIFPPSSEQLTSGGASVVCFLNNFYPKDINVKWKIDGSERQNGVLNSWTDQDSKDSTYSMSSTLTLTKDEYERHNSYTCEATHKTSTSPIVKSFNRNEC
# B2: 7B1F3: mouse IgG1 kappa antibody against US28 ECD1 Peptide-N; VH SEQ ID NO: 211, VL SEQ ID NO: 213 (antibody, V domains shown)
# VH: EVQLQQSGAELAKPGASVKMSCKASGYTFTNYWMHWVKQRPGQGLEWIGYVNPRTGYTEYNQKFKDKATLTADKSSRTAYMQLSSLTSEDSAVYSCARILNGTGFAYWGQGTLVTVSA
# VL: DIVLTQSPSSLTVSVGEKFTMSCKSSQSLLYSSNQKNYLAWYQQKPGQSPKLLIYWASTRESGVPDRFTGSGSGTDFTLAISSVKPEDLAIYYCQQYYSFPLTFGAGTKLEIK
# modifications: Mature form of VH sequence of 7B1F3, without the leader sequence; Mature form of VL sequence of 7B1F3, without the leader sequence
# B3: 13-5G6-1D3: mouse monoclonal IgG1 kappa antibody against US28 ECD3; VH SEQ ID NO: 12, VL SEQ ID NO: 18 (antibody, V domains shown)
# VH: EVKLVESGGGLVQPGGSLRLACATSGFTFTDYYMSWVRQPPGKALEWLGFIRSKANGYTTEYSASVKGRFTISRDNSQSILYLQMNTLRSEDSATYYCARDERRTAWLAYWGQGTLVTVSA
# VL: DVLMTQTPLSLPVSLGDQASISCRSSQSIVHSNGNTYLDWYLQKPGQSPKLLIYKVSNRFSGVPDRFSGSGSGTDFTLKISRVEAEDLGVYYCFQGSHVPTWTFGGGTKLEIK
# modifications: Mature form of VH sequence of 1D3, without the leader sequence; Mature form of VL sequence of 1D3, without the leader sequence
# Assays:
# [1] = system: US28 negative CHO control cells; assay: Flow cytometry off-target binding to US28 negative control CHO cells; design: species or system Chinese Hamster; details: 1:10 dilution (w/v), after removing binding to blank and secondary Ab controls
# Text: FIG. 4. The positive surface binding of the clone US28-13-5G6-1D3 on CHO-US28-A1 cells was compared with the US28 negative CHO control cells. The clone US28-13-5G6-1D3 Ab bound 15-fold more to the surface of the US28 positive CHO-US28-A1 cells than to the US28 negative CHO cells in 1:50 (w/v).
# FIG. 7. Surface binding of 13-5G6-1D3 rAb on CHO-US28-A1 cells, and on respective control CHO cells were validated by using FACS analysis. The bars showing results for CHO cells are colored with dark grey whereas the bars showing results for CHO-US28-A1 cells are colored with pale grey color. […] The surface binding of the 13-5G6-1D3 rAb to CHO cells was only measured in 1:10 dilution (w/v) and was 0.77% after removing the binding to blank and anti-mouse IgG-Alexa 488 secondary Ab controls.
# FIG. 22. Percentage off-target binding of various ECD3-binding molecules of the invention (A) or various SEQ ID NO: 177-binding molecules of the invention (B), in comparison with VUN100, as assessed by binding to control CHO cells.
# In a further embodiment, it is preferred that a binding molecule of the present invention binds preferentially to US28-expressing cells (such as CHO cells engineered to express US28) compared to its binding of US28-negative cells (such as wildtype CHO cells), for example, at a 1:50 (w/v) dilution, for example as determined by flow cytometry assay. […]
# [2] = target: T1, Peptide-N […] (SEQ ID NO: 177), HCMV US28 ECD1 (Human cytomegalovirus, UniProt P69332); assay: ELISA, binding to Peptide-N (Bio-Peptide-N / Peptide-N-BSA coating)
# T1 construct: Peptide-N was prepared via chemical synthesis: […]; made in house; host or cells: chemical synthesis
# Method: (§1) Microtiter plate wells were coated with 100 μl of the solution containing: (i) Bio-Peptide-N; or (ii) Bio-Peptide-1 and Bio-Peptide-2; at a concentration of between 1-10 μg/ml in coating buffer, consisting of Na2CO3, 1.5 g and NaHCO3, 2.93 g in 1 L of distilled water in pH 9.6, and then incubated for 1-2 hours at room temperature. The plate was washed 3 times in wash buffer consisting of PBS containing 0.05% v/v Tween-20 and blotted with paper towels thereafter. 150 μl of blocking solution containing Phosphate buffered saline (PBS) containing 1% w/v BSA, was added to each well and the plate was incubated for 2 hours at 37° C. The wells were washed 4 times in wash buffer and blotted on paper towels after the last wash. 100 μl of antibody dilution was added to each well and the plate was incubated for 1 hour at 37° C. and thereafter washed 3 times in wash buffer. 100 μl enzyme-conjugated secondary antibody (appropriately diluted in wash buffer) was added to each well and the plate was incubated for 1 hour at 37° C. The wells were then again washed 3 times in wash buffer and blotted with paper towels after the last wash. […] The absorbance values were read immediately at the appropriate wavelength and the data analyzed by Cmax Plus, Molecular Devices, San Jose, CA 95134, USA,
# BSA = BSA (Bos taurus, UniProt P02769); assay: ELISA, BSA coating (control); assay type: binding; details: ECD1 subclones
# Method: as §1
# [3] = system: human primary adrenal cortical, kidney epithelial, cardiac microvascular endothelial, liver epithelial and vein smooth muscle cells; assay: Flow cytometry off-target surface binding to human primary cells; details: all five cell types, PE-labelled antibody
# Method: FIG. 19. A. Flowcytometry analysis with the 28-13-5G6-1D3-PE antibody were conducted on various human primary cells to exclude general off-target binding to the surface of these cell types. The following cell lines were studied: human primary adrenal cortical cells, human primary kidney epithelial cells, human primary cardiac microvascular endothelial cells, human primary liver epithelial cells and human primary vein smooth muscle cells. […] B. Original human primary cardiac cells were not available, and human cardiac tissue samples were therefore studied for staining of 13-5G6-1D3 by immunohistochemistry. […] If there were HCMV infections present in the human heart, they were always of productive infection type. […] The positive 13-5G6-1D3 and HCMV ISH results are marked with arrows in the figure. A colour version of FIG. 19 is also provided.
# pancreatic tissue = assay: IHC on pancreatic tissues; design: species or system human
# Text: FIG. 20. Some pancreatic tissues were studied to exclude general off-target binding of the 28-13-5G6-1D3 to this tissue type. […] The HCMV ISH is negative indicating absence of viral HCMV DNA in the normal pancreatic tissue sample. […] Thus, the same sample is positive for both HCMV proteins US28 and IE and HCMV DNA but negative for the negative control IgG indicating specific antibody binding. The US28 protein staining is cytoplasmic as expected, the IE protein is mostly located in the cell nucleus as expected since it is a nuclear protein. […] A colour version of FIG. 20 is also provided.
# Sequence of BSA (P02769 25-607): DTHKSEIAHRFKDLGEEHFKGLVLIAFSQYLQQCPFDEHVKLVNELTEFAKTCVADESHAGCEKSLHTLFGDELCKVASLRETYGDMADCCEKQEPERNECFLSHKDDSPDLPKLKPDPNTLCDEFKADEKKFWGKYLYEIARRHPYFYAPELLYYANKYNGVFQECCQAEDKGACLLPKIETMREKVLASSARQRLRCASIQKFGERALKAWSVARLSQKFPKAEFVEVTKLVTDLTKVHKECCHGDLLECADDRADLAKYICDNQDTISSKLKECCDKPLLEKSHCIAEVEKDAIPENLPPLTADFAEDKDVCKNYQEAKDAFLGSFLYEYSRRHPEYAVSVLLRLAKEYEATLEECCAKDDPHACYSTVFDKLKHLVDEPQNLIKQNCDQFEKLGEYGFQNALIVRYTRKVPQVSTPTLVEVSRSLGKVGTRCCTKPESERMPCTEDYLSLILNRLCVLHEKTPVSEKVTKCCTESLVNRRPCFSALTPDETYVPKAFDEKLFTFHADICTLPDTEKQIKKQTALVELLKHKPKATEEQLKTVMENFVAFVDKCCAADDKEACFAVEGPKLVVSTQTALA
molecule,measurement,setting,value
B1,"surface binding to CHO cells, percent of cells",[1],0.77%
B2,"absorbance, Coating: Peptide-N-BSA","[2]; ELISA absorbance, ECD1 subclones",2.7989
same,qualitative ELISA binding to Bio-Peptide-N,[2]; recombinant antibodies,"equal, strong and high binding affinity"
same,"absorbance, Coating: BSA",BSA,0.0474
B3,surface binding to human primary cells,[3],< 1%
same,IHC staining of normal pancreatic tissue,pancreatic tissue; HCMV ISH negative sample,negative staining
same,IHC staining of pancreatic tissue sample from another patient,pancreatic tissue; HCMV ISH positive sample,positive
